Experimental data published in doi:10.1101/2022.06.02.494603 (bioRxiv, 2022).

B1: TBK1 I710N, untagged (natural protein, human, UniProt Q9UHD2 1-729, looked up)
chain: MQSTSNHLWLLSDILGQGATANVFRGRHKKTGDLFAIKVFNNISFLRPVDVQMREFEVLKKLNHKNIVKLFAIEEETTTRHKVLIMEFCPCGSLYTVLEEPSNAYGLPESEFLIVLRDVVGGMNHLRENGIVHRDIKPGNIMRVIGEDGQSVYKLTDFGAARELEDDEQFVSLYGTEEYLHPDMYERAVLRKDHQKKYGATVDLWSIGVTFYHAATGSLPFRPFEGPRRNKEVMYKIITGKPSGAISGVQKAENGPIDWSGDMPVSCSLSRGLQVLLTPVLANILEADQEKCWGFDQFFAETSDILHRMVIHVFSLQQMTAHKIYIHSYNTATIFHELVYKQTKIISSNQELIYEGRRLVLEPGRLAQHFPKTTEENPIFVVSREPLNTIGLIYEKISLPKVHPRYDLDGDASMAKAITGVVCYACRIASTLLLYQELMRKGIRWLIELIKDDYNETVHKKTEVVITLDFCIRNIEKTVKVYEKLMKINLEAAELGEISDIHTKLLRLSSSQGTIETSLQDIDSRLSPGGSLADAWAHQEGTHPKDRNVEKLQVLLNCMTEIYYQFKKDKAERRLAYNEEQIHKFDKQKLYYHATKAMTHFTDECVKKYEAFLNKSEEWIRKMLHLRKQLLSLTNQCFDIEEEVSKYQEYTNELQETLPQKMFTASSGIKHTMTPIYPSSNTLVEMTLGMKKLKEEMEGVVKELAENNHNLERFGSLTMDGGLRNVDCL
B2: TBK1 R47H, untagged (natural protein, human, UniProt Q9UHD2 1-729, looked up)
chain: MQSTSNHLWLLSDILGQGATANVFRGRHKKTGDLFAIKVFNNISFLHPVDVQMREFEVLKKLNHKNIVKLFAIEEETTTRHKVLIMEFCPCGSLYTVLEEPSNAYGLPESEFLIVLRDVVGGMNHLRENGIVHRDIKPGNIMRVIGEDGQSVYKLTDFGAARELEDDEQFVSLYGTEEYLHPDMYERAVLRKDHQKKYGATVDLWSIGVTFYHAATGSLPFRPFEGPRRNKEVMYKIITGKPSGAISGVQKAENGPIDWSGDMPVSCSLSRGLQVLLTPVLANILEADQEKCWGFDQFFAETSDILHRMVIHVFSLQQMTAHKIYIHSYNTATIFHELVYKQTKIISSNQELIYEGRRLVLEPGRLAQHFPKTTEENPIFVVSREPLNTIGLIYEKISLPKVHPRYDLDGDASMAKAITGVVCYACRIASTLLLYQELMRKGIRWLIELIKDDYNETVHKKTEVVITLDFCIRNIEKTVKVYEKLMKINLEAAELGEISDIHTKLLRLSSSQGTIETSLQDIDSRLSPGGSLADAWAHQEGTHPKDRNVEKLQVLLNCMTEIYYQFKKDKAERRLAYNEEQIHKFDKQKLYYHATKAMTHFTDECVKKYEAFLNKSEEWIRKMLHLRKQLLSLTNQCFDIEEEVSKYQEYTNELQETLPQKMFTASSGIKHTMTPIYPSSNTLVEMTLGMKKLKEEMEGVVKELAENNHILERFGSLTMDGGLRNVDCL
B3: TBK1 Q565P, untagged (natural protein, human, UniProt Q9UHD2 1-729, looked up)
chain: MQSTSNHLWLLSDILGQGATANVFRGRHKKTGDLFAIKVFNNISFLRPVDVQMREFEVLKKLNHKNIVKLFAIEEETTTRHKVLIMEFCPCGSLYTVLEEPSNAYGLPESEFLIVLRDVVGGMNHLRENGIVHRDIKPGNIMRVIGEDGQSVYKLTDFGAARELEDDEQFVSLYGTEEYLHPDMYERAVLRKDHQKKYGATVDLWSIGVTFYHAATGSLPFRPFEGPRRNKEVMYKIITGKPSGAISGVQKAENGPIDWSGDMPVSCSLSRGLQVLLTPVLANILEADQEKCWGFDQFFAETSDILHRMVIHVFSLQQMTAHKIYIHSYNTATIFHELVYKQTKIISSNQELIYEGRRLVLEPGRLAQHFPKTTEENPIFVVSREPLNTIGLIYEKISLPKVHPRYDLDGDASMAKAITGVVCYACRIASTLLLYQELMRKGIRWLIELIKDDYNETVHKKTEVVITLDFCIRNIEKTVKVYEKLMKINLEAAELGEISDIHTKLLRLSSSQGTIETSLQDIDSRLSPGGSLADAWAHQEGTHPKDRNVEKLQVLLNCMTEIYYPFKKDKAERRLAYNEEQIHKFDKQKLYYHATKAMTHFTDECVKKYEAFLNKSEEWIRKMLHLRKQLLSLTNQCFDIEEEVSKYQEYTNELQETLPQKMFTASSGIKHTMTPIYPSSNTLVEMTLGMKKLKEEMEGVVKELAENNHILERFGSLTMDGGLRNVDCL
B4: TBK1 M559R, untagged (natural protein, human, UniProt Q9UHD2 1-729, looked up)
chain: MQSTSNHLWLLSDILGQGATANVFRGRHKKTGDLFAIKVFNNISFLRPVDVQMREFEVLKKLNHKNIVKLFAIEEETTTRHKVLIMEFCPCGSLYTVLEEPSNAYGLPESEFLIVLRDVVGGMNHLRENGIVHRDIKPGNIMRVIGEDGQSVYKLTDFGAARELEDDEQFVSLYGTEEYLHPDMYERAVLRKDHQKKYGATVDLWSIGVTFYHAATGSLPFRPFEGPRRNKEVMYKIITGKPSGAISGVQKAENGPIDWSGDMPVSCSLSRGLQVLLTPVLANILEADQEKCWGFDQFFAETSDILHRMVIHVFSLQQMTAHKIYIHSYNTATIFHELVYKQTKIISSNQELIYEGRRLVLEPGRLAQHFPKTTEENPIFVVSREPLNTIGLIYEKISLPKVHPRYDLDGDASMAKAITGVVCYACRIASTLLLYQELMRKGIRWLIELIKDDYNETVHKKTEVVITLDFCIRNIEKTVKVYEKLMKINLEAAELGEISDIHTKLLRLSSSQGTIETSLQDIDSRLSPGGSLADAWAHQEGTHPKDRNVEKLQVLLNCRTEIYYQFKKDKAERRLAYNEEQIHKFDKQKLYYHATKAMTHFTDECVKKYEAFLNKSEEWIRKMLHLRKQLLSLTNQCFDIEEEVSKYQEYTNELQETLPQKMFTASSGIKHTMTPIYPSSNTLVEMTLGMKKLKEEMEGVVKELAENNHILERFGSLTMDGGLRNVDCL
B5: TBK1 Q581H, untagged (natural protein, human, UniProt Q9UHD2 1-729, looked up)
chain: MQSTSNHLWLLSDILGQGATANVFRGRHKKTGDLFAIKVFNNISFLRPVDVQMREFEVLKKLNHKNIVKLFAIEEETTTRHKVLIMEFCPCGSLYTVLEEPSNAYGLPESEFLIVLRDVVGGMNHLRENGIVHRDIKPGNIMRVIGEDGQSVYKLTDFGAARELEDDEQFVSLYGTEEYLHPDMYERAVLRKDHQKKYGATVDLWSIGVTFYHAATGSLPFRPFEGPRRNKEVMYKIITGKPSGAISGVQKAENGPIDWSGDMPVSCSLSRGLQVLLTPVLANILEADQEKCWGFDQFFAETSDILHRMVIHVFSLQQMTAHKIYIHSYNTATIFHELVYKQTKIISSNQELIYEGRRLVLEPGRLAQHFPKTTEENPIFVVSREPLNTIGLIYEKISLPKVHPRYDLDGDASMAKAITGVVCYACRIASTLLLYQELMRKGIRWLIELIKDDYNETVHKKTEVVITLDFCIRNIEKTVKVYEKLMKINLEAAELGEISDIHTKLLRLSSSQGTIETSLQDIDSRLSPGGSLADAWAHQEGTHPKDRNVEKLQVLLNCMTEIYYQFKKDKAERRLAYNEEHIHKFDKQKLYYHATKAMTHFTDECVKKYEAFLNKSEEWIRKMLHLRKQLLSLTNQCFDIEEEVSKYQEYTNELQETLPQKMFTASSGIKHTMTPIYPSSNTLVEMTLGMKKLKEEMEGVVKELAENNHILERFGSLTMDGGLRNVDCL
B6: TBK1 L94S, untagged (natural protein, human, UniProt Q9UHD2 1-729, looked up)
chain: MQSTSNHLWLLSDILGQGATANVFRGRHKKTGDLFAIKVFNNISFLRPVDVQMREFEVLKKLNHKNIVKLFAIEEETTTRHKVLIMEFCPCGSSYTVLEEPSNAYGLPESEFLIVLRDVVGGMNHLRENGIVHRDIKPGNIMRVIGEDGQSVYKLTDFGAARELEDDEQFVSLYGTEEYLHPDMYERAVLRKDHQKKYGATVDLWSIGVTFYHAATGSLPFRPFEGPRRNKEVMYKIITGKPSGAISGVQKAENGPIDWSGDMPVSCSLSRGLQVLLTPVLANILEADQEKCWGFDQFFAETSDILHRMVIHVFSLQQMTAHKIYIHSYNTATIFHELVYKQTKIISSNQELIYEGRRLVLEPGRLAQHFPKTTEENPIFVVSREPLNTIGLIYEKISLPKVHPRYDLDGDASMAKAITGVVCYACRIASTLLLYQELMRKGIRWLIELIKDDYNETVHKKTEVVITLDFCIRNIEKTVKVYEKLMKINLEAAELGEISDIHTKLLRLSSSQGTIETSLQDIDSRLSPGGSLADAWAHQEGTHPKDRNVEKLQVLLNCMTEIYYQFKKDKAERRLAYNEEQIHKFDKQKLYYHATKAMTHFTDECVKKYEAFLNKSEEWIRKMLHLRKQLLSLTNQCFDIEEEVSKYQEYTNELQETLPQKMFTASSGIKHTMTPIYPSSNTLVEMTLGMKKLKEEMEGVVKELAENNHILERFGSLTMDGGLRNVDCL
B7: TBK1 R134H, untagged (natural protein, human, UniProt Q9UHD2 1-729, looked up)
chain: MQSTSNHLWLLSDILGQGATANVFRGRHKKTGDLFAIKVFNNISFLRPVDVQMREFEVLKKLNHKNIVKLFAIEEETTTRHKVLIMEFCPCGSLYTVLEEPSNAYGLPESEFLIVLRDVVGGMNHLRENGIVHHDIKPGNIMRVIGEDGQSVYKLTDFGAARELEDDEQFVSLYGTEEYLHPDMYERAVLRKDHQKKYGATVDLWSIGVTFYHAATGSLPFRPFEGPRRNKEVMYKIITGKPSGAISGVQKAENGPIDWSGDMPVSCSLSRGLQVLLTPVLANILEADQEKCWGFDQFFAETSDILHRMVIHVFSLQQMTAHKIYIHSYNTATIFHELVYKQTKIISSNQELIYEGRRLVLEPGRLAQHFPKTTEENPIFVVSREPLNTIGLIYEKISLPKVHPRYDLDGDASMAKAITGVVCYACRIASTLLLYQELMRKGIRWLIELIKDDYNETVHKKTEVVITLDFCIRNIEKTVKVYEKLMKINLEAAELGEISDIHTKLLRLSSSQGTIETSLQDIDSRLSPGGSLADAWAHQEGTHPKDRNVEKLQVLLNCMTEIYYQFKKDKAERRLAYNEEQIHKFDKQKLYYHATKAMTHFTDECVKKYEAFLNKSEEWIRKMLHLRKQLLSLTNQCFDIEEEVSKYQEYTNELQETLPQKMFTASSGIKHTMTPIYPSSNTLVEMTLGMKKLKEEMEGVVKELAENNHILERFGSLTMDGGLRNVDCL
B8: TBK1 R440Q, untagged (natural protein, human, UniProt Q9UHD2 1-729, looked up)
chain: MQSTSNHLWLLSDILGQGATANVFRGRHKKTGDLFAIKVFNNISFLRPVDVQMREFEVLKKLNHKNIVKLFAIEEETTTRHKVLIMEFCPCGSLYTVLEEPSNAYGLPESEFLIVLRDVVGGMNHLRENGIVHRDIKPGNIMRVIGEDGQSVYKLTDFGAARELEDDEQFVSLYGTEEYLHPDMYERAVLRKDHQKKYGATVDLWSIGVTFYHAATGSLPFRPFEGPRRNKEVMYKIITGKPSGAISGVQKAENGPIDWSGDMPVSCSLSRGLQVLLTPVLANILEADQEKCWGFDQFFAETSDILHRMVIHVFSLQQMTAHKIYIHSYNTATIFHELVYKQTKIISSNQELIYEGRRLVLEPGRLAQHFPKTTEENPIFVVSREPLNTIGLIYEKISLPKVHPRYDLDGDASMAKAITGVVCYACRIASTLLLYQELMQKGIRWLIELIKDDYNETVHKKTEVVITLDFCIRNIEKTVKVYEKLMKINLEAAELGEISDIHTKLLRLSSSQGTIETSLQDIDSRLSPGGSLADAWAHQEGTHPKDRNVEKLQVLLNCMTEIYYQFKKDKAERRLAYNEEQIHKFDKQKLYYHATKAMTHFTDECVKKYEAFLNKSEEWIRKMLHLRKQLLSLTNQCFDIEEEVSKYQEYTNELQETLPQKMFTASSGIKHTMTPIYPSSNTLVEMTLGMKKLKEEMEGVVKELAENNHILERFGSLTMDGGLRNVDCL

Target: optineurin, C-terminal myc-FLAG-tagged (UniProt Q96CV9 1-577)
Sequence (Q96CV9 whole entry): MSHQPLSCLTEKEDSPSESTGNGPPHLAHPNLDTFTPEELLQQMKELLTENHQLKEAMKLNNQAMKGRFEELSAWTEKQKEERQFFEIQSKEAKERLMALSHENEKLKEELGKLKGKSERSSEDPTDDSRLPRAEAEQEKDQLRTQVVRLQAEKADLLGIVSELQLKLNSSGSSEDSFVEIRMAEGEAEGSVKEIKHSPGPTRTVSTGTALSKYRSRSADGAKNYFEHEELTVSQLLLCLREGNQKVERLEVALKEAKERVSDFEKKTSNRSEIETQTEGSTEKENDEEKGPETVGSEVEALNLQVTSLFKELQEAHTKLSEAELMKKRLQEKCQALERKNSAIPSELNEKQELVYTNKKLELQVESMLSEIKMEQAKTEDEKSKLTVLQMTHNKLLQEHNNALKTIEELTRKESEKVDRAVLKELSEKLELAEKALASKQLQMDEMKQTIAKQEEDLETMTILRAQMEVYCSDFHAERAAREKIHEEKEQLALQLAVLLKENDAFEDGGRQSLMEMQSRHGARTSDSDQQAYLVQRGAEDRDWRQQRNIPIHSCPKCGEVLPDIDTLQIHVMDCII
Assay: co-IP

| Binder | TBK1 bound to OPTN relative to wild type |
| --- | --- |
| B1 | 0.07 relative to TBK1 WT |
| B2 | 3.23 relative to TBK1 WT |
| B3 | 0.14 relative to TBK1 WT |
| B4 | 0.05 relative to TBK1 WT |
| B5 | 0.2 relative to TBK1 WT |
| B6 | 0.04 relative to TBK1 WT |
| B7 | 2.53 relative to TBK1 WT |
| B8 | 0.17 relative to TBK1 WT |
